Earlier results in patent publication US20230220007A1, “SETD7 EPIGENETIC MODULATORS” (Biorchestra Co., Ltd., priority 2020, published 2023).

Tested on: histone
Conditions: cited from earlier work; for monomethyl transferase activity: SETD7 substitution mutants; for histone monomethyl transferase activity: mutagenic studies on SETD7

Molecule	monomethyl transferase activity	histone monomethyl transferase activity	also measured
Y245A: SETD7 substitution mutant at position 245 (protein) MDSDDEMVEEAVEGHLDDDGLPHGFCTVTYSSTDRFEGNFVHGEKNGRGKFFFFDGSTLEGYYVDDALQGQGVYTYEDGGVLQGTYVDGELNGPAQEYDTDGRLIFKGQYKDNIRHGVCWIYYPDGGSLVGEVNEDGEMTGEKIAYVYPDERTALYGKFIDGEMIEGKLATLMSTEEGRPHFELMPGNSVYHFDKSTSSCISTNALLPDPYESERVYVAESLISSAGEGLFSKVAVGPNTVMSFANGVRITHQEVDSRDWALNGNTLSLDEETVIDVPEPYNHVSKYCASLGHKANHSFTPNCIYDMFVHPRFGPIKCIRTLRAVEADEELTVAYGYDHSPPGKSGPEAPEWYQVELKAFQATQQK	significantly reduces	partial or complete loss	dimethyltransferase activity: increases
H297A: SETD7 mutant protein with H297A mutation, abolishes methyltransferase activity (protein) MDSDDEMVEEAVEGHLDDDGLPHGFCTVTYSSTDRFEGNFVHGEKNGRGKFFFFDGSTLEGYYVDDALQGQGVYTYEDGGVLQGTYVDGELNGPAQEYDTDGRLIFKGQYKDNIRHGVCWIYYPDGGSLVGEVNEDGEMTGEKIAYVYPDERTALYGKFIDGEMIEGKLATLMSTEEGRPHFELMPGNSVYHFDKSTSSCISTNALLPDPYESERVYVAESLISSAGEGLFSKVAVGPNTVMSFYNGVRITHQEVDSRDWALNGNTLSLDEETVIDVPEPYNHVSKYCASLGHKANASFTPNCIYDMFVHPRFGPIKCIRTLRAVEADEELTVAYGYDHSPPGKSGPEAPEWYQVELKAFQATQQK		partial or complete loss	methyltransferase activity (enzymatic activity) (His297 mutation): abolishes
E351A: SETD7 substitution mutant at position 351 (protein) MDSDDEMVEEAVEGHLDDDGLPHGFCTVTYSSTDRFEGNFVHGEKNGRGKFFFFDGSTLEGYYVDDALQGQGVYTYEDGGVLQGTYVDGELNGPAQEYDTDGRLIFKGQYKDNIRHGVCWIYYPDGGSLVGEVNEDGEMTGEKIAYVYPDERTALYGKFIDGEMIEGKLATLMSTEEGRPHFELMPGNSVYHFDKSTSSCISTNALLPDPYESERVYVAESLISSAGEGLFSKVAVGPNTVMSFYNGVRITHQEVDSRDWALNGNTLSLDEETVIDVPEPYNHVSKYCASLGHKANHSFTPNCIYDMFVHPRFGPIKCIRTLRAVEADEELTVAYGYDHSPPGKSGPEAPAWYQVELKAFQATQQK	partial loss		
Y335A: SETD7 substitution mutant at position 335 (protein) MDSDDEMVEEAVEGHLDDDGLPHGFCTVTYSSTDRFEGNFVHGEKNGRGKFFFFDGSTLEGYYVDDALQGQGVYTYEDGGVLQGTYVDGELNGPAQEYDTDGRLIFKGQYKDNIRHGVCWIYYPDGGSLVGEVNEDGEMTGEKIAYVYPDERTALYGKFIDGEMIEGKLATLMSTEEGRPHFELMPGNSVYHFDKSTSSCISTNALLPDPYESERVYVAESLISSAGEGLFSKVAVGPNTVMSFYNGVRITHQEVDSRDWALNGNTLSLDEETVIDVPEPYNHVSKYCASLGHKANHSFTPNCIYDMFVHPRFGPIKCIRTLRAVEADEELTVAAGYDHSPPGKSGPEAPEWYQVELKAFQATQQK		partial or complete loss	
E254A: SETD7 substitution mutant at position 254 (protein) MDSDDEMVEEAVEGHLDDDGLPHGFCTVTYSSTDRFEGNFVHGEKNGRGKFFFFDGSTLEGYYVDDALQGQGVYTYEDGGVLQGTYVDGELNGPAQEYDTDGRLIFKGQYKDNIRHGVCWIYYPDGGSLVGEVNEDGEMTGEKIAYVYPDERTALYGKFIDGEMIEGKLATLMSTEEGRPHFELMPGNSVYHFDKSTSSCISTNALLPDPYESERVYVAESLISSAGEGLFSKVAVGPNTVMSFYNGVRITHQAVDSRDWALNGNTLSLDEETVIDVPEPYNHVSKYCASLGHKANHSFTPNCIYDMFVHPRFGPIKCIRTLRAVEADEELTVAYGYDHSPPGKSGPEAPEWYQVELKAFQATQQK		partial or complete loss	
Q354A: SETD7 substitution mutant at position 354 (protein) MDSDDEMVEEAVEGHLDDDGLPHGFCTVTYSSTDRFEGNFVHGEKNGRGKFFFFDGSTLEGYYVDDALQGQGVYTYEDGGVLQGTYVDGELNGPAQEYDTDGRLIFKGQYKDNIRHGVCWIYYPDGGSLVGEVNEDGEMTGEKIAYVYPDERTALYGKFIDGEMIEGKLATLMSTEEGRPHFELMPGNSVYHFDKSTSSCISTNALLPDPYESERVYVAESLISSAGEGLFSKVAVGPNTVMSFYNGVRITHQEVDSRDWALNGNTLSLDEETVIDVPEPYNHVSKYCASLGHKANHSFTPNCIYDMFVHPRFGPIKCIRTLRAVEADEELTVAYGYDHSPPGKSGPEAPEWYAVELKAFQATQQK	partial loss		
Y353A: SETD7 substitution mutant at position 353 (protein) MDSDDEMVEEAVEGHLDDDGLPHGFCTVTYSSTDRFEGNFVHGEKNGRGKFFFFDGSTLEGYYVDDALQGQGVYTYEDGGVLQGTYVDGELNGPAQEYDTDGRLIFKGQYKDNIRHGVCWIYYPDGGSLVGEVNEDGEMTGEKIAYVYPDERTALYGKFIDGEMIEGKLATLMSTEEGRPHFELMPGNSVYHFDKSTSSCISTNALLPDPYESERVYVAESLISSAGEGLFSKVAVGPNTVMSFYNGVRITHQEVDSRDWALNGNTLSLDEETVIDVPEPYNHVSKYCASLGHKANHSFTPNCIYDMFVHPRFGPIKCIRTLRAVEADEELTVAYGYDHSPPGKSGPEAPEWAQVELKAFQATQQK	complete loss		
E329A: SETD7 substitution mutant at position 329 (protein) MDSDDEMVEEAVEGHLDDDGLPHGFCTVTYSSTDRFEGNFVHGEKNGRGKFFFFDGSTLEGYYVDDALQGQGVYTYEDGGVLQGTYVDGELNGPAQEYDTDGRLIFKGQYKDNIRHGVCWIYYPDGGSLVGEVNEDGEMTGEKIAYVYPDERTALYGKFIDGEMIEGKLATLMSTEEGRPHFELMPGNSVYHFDKSTSSCISTNALLPDPYESERVYVAESLISSAGEGLFSKVAVGPNTVMSFYNGVRITHQEVDSRDWALNGNTLSLDEETVIDVPEPYNHVSKYCASLGHKANHSFTPNCIYDMFVHPRFGPIKCIRTLRAVEADAELTVAYGYDHSPPGKSGPEAPEWYQVELKAFQATQQK		partial or complete loss	
E330A: SETD7 substitution mutant at position 330 (protein) MDSDDEMVEEAVEGHLDDDGLPHGFCTVTYSSTDRFEGNFVHGEKNGRGKFFFFDGSTLEGYYVDDALQGQGVYTYEDGGVLQGTYVDGELNGPAQEYDTDGRLIFKGQYKDNIRHGVCWIYYPDGGSLVGEVNEDGEMTGEKIAYVYPDERTALYGKFIDGEMIEGKLATLMSTEEGRPHFELMPGNSVYHFDKSTSSCISTNALLPDPYESERVYVAESLISSAGEGLFSKVAVGPNTVMSFYNGVRITHQEVDSRDWALNGNTLSLDEETVIDVPEPYNHVSKYCASLGHKANHSFTPNCIYDMFVHPRFGPIKCIRTLRAVEADEALTVAYGYDHSPPGKSGPEAPEWYQVELKAFQATQQK		partial or complete loss	
D270A: SETD7 substitution mutant at position 270 (protein) MDSDDEMVEEAVEGHLDDDGLPHGFCTVTYSSTDRFEGNFVHGEKNGRGKFFFFDGSTLEGYYVDDALQGQGVYTYEDGGVLQGTYVDGELNGPAQEYDTDGRLIFKGQYKDNIRHGVCWIYYPDGGSLVGEVNEDGEMTGEKIAYVYPDERTALYGKFIDGEMIEGKLATLMSTEEGRPHFELMPGNSVYHFDKSTSSCISTNALLPDPYESERVYVAESLISSAGEGLFSKVAVGPNTVMSFYNGVRITHQEVDSRDWALNGNTLSLAEETVIDVPEPYNHVSKYCASLGHKANHSFTPNCIYDMFVHPRFGPIKCIRTLRAVEADEELTVAYGYDHSPPGKSGPEAPEWYQVELKAFQATQQK		partial or complete loss	
N296A: SETD7 substitution mutant at position 296 (protein) MDSDDEMVEEAVEGHLDDDGLPHGFCTVTYSSTDRFEGNFVHGEKNGRGKFFFFDGSTLEGYYVDDALQGQGVYTYEDGGVLQGTYVDGELNGPAQEYDTDGRLIFKGQYKDNIRHGVCWIYYPDGGSLVGEVNEDGEMTGEKIAYVYPDERTALYGKFIDGEMIEGKLATLMSTEEGRPHFELMPGNSVYHFDKSTSSCISTNALLPDPYESERVYVAESLISSAGEGLFSKVAVGPNTVMSFYNGVRITHQEVDSRDWALNGNTLSLDEETVIDVPEPYNHVSKYCASLGHKAAHSFTPNCIYDMFVHPRFGPIKCIRTLRAVEADEELTVAYGYDHSPPGKSGPEAPEWYQVELKAFQATQQK		partial or complete loss	
W352A: SETD7 substitution mutant at position 352 (protein) MDSDDEMVEEAVEGHLDDDGLPHGFCTVTYSSTDRFEGNFVHGEKNGRGKFFFFDGSTLEGYYVDDALQGQGVYTYEDGGVLQGTYVDGELNGPAQEYDTDGRLIFKGQYKDNIRHGVCWIYYPDGGSLVGEVNEDGEMTGEKIAYVYPDERTALYGKFIDGEMIEGKLATLMSTEEGRPHFELMPGNSVYHFDKSTSSCISTNALLPDPYESERVYVAESLISSAGEGLFSKVAVGPNTVMSFYNGVRITHQEVDSRDWALNGNTLSLDEETVIDVPEPYNHVSKYCASLGHKANHSFTPNCIYDMFVHPRFGPIKCIRTLRAVEADEELTVAYGYDHSPPGKSGPEAPEAYQVELKAFQATQQK	complete loss		
N302A: SETD7 substitution mutant at position 302 (protein) MDSDDEMVEEAVEGHLDDDGLPHGFCTVTYSSTDRFEGNFVHGEKNGRGKFFFFDGSTLEGYYVDDALQGQGVYTYEDGGVLQGTYVDGELNGPAQEYDTDGRLIFKGQYKDNIRHGVCWIYYPDGGSLVGEVNEDGEMTGEKIAYVYPDERTALYGKFIDGEMIEGKLATLMSTEEGRPHFELMPGNSVYHFDKSTSSCISTNALLPDPYESERVYVAESLISSAGEGLFSKVAVGPNTVMSFYNGVRITHQEVDSRDWALNGNTLSLDEETVIDVPEPYNHVSKYCASLGHKANHSFTPACIYDMFVHPRFGPIKCIRTLRAVEADEELTVAYGYDHSPPGKSGPEAPEWYQVELKAFQATQQK		partial or complete loss	
